From the supplement of paper PMC10567573

B1: KRT13 (parent)
chain: TSSASVTTTSNASGRRTSDVRRP
B2: ZNF449 (parent)
chain: HTGERPYECTVCKKRFTRRSHLIG

Variants of: B1
Experiment: protein stability index of a GFP-peptide fusion (GPS, HEK-293T) (PSI 1-6); higher = more stable
Conditions: c terminus: native
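Note: lentivirally expressed fusions sorted by FACS into six bins by GFP to DsRed ratio, PSI derived from sequencing read proportions per bin multiplied by bin number.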

| Variant | protein stability index |
| --- | --- |
| TSSASVTTTSNASGRRTSDVRQP | 2.71 |
| TSSASVTTTSNASGRRTSDVRLP | 1.38 |
| TSSASVTTTSNASGRRTSDVRNP | 3.07 |
| TSSASVTTTSNASGRRTSDVRAP | 2.49 |
| TSSASVTTTSNASGRRTSDVRKP | 2.13 |
| TSSASVTTTSNASGRRTSDVRHP | 3.45 |
| TSSASVTTTSNASGRRTSDVREP | 1.75 |
| TSSASVTTTSNASGRRTSDVRIP | 2.77 |
| TSSASVTTTSNASGRRTSDVRDP | 1.93 |
| TSSASVTTTSNASGRRTSDVRWP | 2.04 |
| TSSASVTTTSNASGRRTSDVRPP | 2.62 |
| TSSASVTTTSNASGRRTSDVRVP | 2.08 |
| TSSASVTTTSNASGRRTSDVRYP | 1.75 |
| TSSASVTTTSNASGRRTSDVRSP | 1.88 |
| TSSASVTTTSNASGRRTSDVRMP | 3.05 |
| TSSASVTTTSNASGRRTSDVRTP | 1.84 |
| TSSASVTTTSNASGRRTSDVYRP | 5.15 |
| TSSASVTTTSNASGRRTSDVLRP | 4.89 |
| TSSASVTTTSNASGRRTSDVHRP | 5.55 |
| TSSASVTTTSNASGRRTSDVVRP | 4.97 |
| TSSASVTTTSNASGRRTSDVNRP | 5.24 |
| TSSASVTTTSNASGRRTSDVFRP | 5.07 |
| TSSASVTTTSNASGRRTSDVDRP | 5.12 |
| TSSASVTTTSNASGRRTSDVQRP | 5.75 |

| Variant | protein stability index |
| --- | --- |
| TSSASVTTTSNASGRRTSDVWRP | 5.35 |
| TSSASVTTTSNASGRRTSDVPRP | 5.33 |
| TSSASVTTTSNASGRRTSDVKRP | 5.25 |
| TSSASVTTTSNASGRRTSDVSRP | 5.41 |
| TSSASVTTTSNASGRRTSDVTRP | 5.55 |
| TSSASVTTTSNASGRRTSDVMRP | 5.27 |
| TSSASVTTTSNASGRRTSDVIRP | 4.91 |
| TSSASVTTTSNASGRRTSDVERP | 5.51 |
| TSSASVTTTSNASGRRTSDVRRM | 4.45 |
| TSSASVTTTSNASGRRTSDVRRH | 1.77 |
| TSSASVTTTSNASGRRTSDVRRQ | 3.43 |
| TSSASVTTTSNASGRRTSDVRRN | 2.27 |
| TSSASVTTTSNASGRRTSDVRRT | 4.53 |
| TSSASVTTTSNASGRRTSDVRRR | 3.9 |
| TSSASVTTTSNASGRRTSDVRRG | 3.15 |
| TSSASVTTTSNASGRRTSDVRRL | 4.45 |
| TSSASVTTTSNASGRRTSDVRRK | 4.84 |
| TSSASVTTTSNASGRRTSDVRRY | 4.86 |
| TSSASVTTTSNASGRRTSDVRRS | 2.36 |
| TSSASVTTTSNASGRRTSDVRRI | 4.47 |
| TSSASVTTTSNASGRRTSDVRRE | 1.59 |
| TSSASVTTTSNASGRRTSDVRRF | 4.92 |
| TSSASVTTTSNASGRRTSDVRRC | 2.42 |
| TSSASVTTTSNASGRRTSDVRRW | 4.6 |

Variants of: B2
Experiment: as above
Conditions: c terminus: a fixed tail appended

| Variant | protein stability index |
| --- | --- |
| HLGERPYECTVCKKRFTRRSHLIG | 2.45 |
| HCGERPYECTVCKKRFTRRSHLIG | 1.42 |
| HNGERPYECTVCKKRFTRRSHLIG | 2.13 |
| HKGERPYECTVCKKRFTRRSHLIG | 2.4 |
| HFGERPYECTVCKKRFTRRSHLIG | 2.08 |
| HSGERPYECTVCKKRFTRRSHLIG | 1.83 |
| HEGERPYECTVCKKRFTRRSHLIG | 2.94 |
| HVGERPYECTVCKKRFTRRSHLIG | 1.97 |
| HDGERPYECTVCKKRFTRRSHLIG | 2.23 |
| HWGERPYECTVCKKRFTRRSHLIG | 2.13 |
| HHGERPYECTVCKKRFTRRSHLIG | 3.18 |
| HMGERPYECTVCKKRFTRRSHLIG | 1.76 |
| HQGERPYECTVCKKRFTRRSHLIG | 2.24 |
| HIGERPYECTVCKKRFTRRSHLIG | 1.47 |
| HAGERPYECTVCKKRFTRRSHLIG | 2.85 |
| HYGERPYECTVCKKRFTRRSHLIG | 1.9 |
| HRGERPYECTVCKKRFTRRSHLIG | 2.12 |
| HPGERPYECTVCKKRFTRRSHLIG | 1.8 |
| HGGERPYECTVCKKRFTRRSHLIG | 2.55 |
| STGERPYECTVCKKRFTRRSHLIG | 1.85 |
| YTGERPYECTVCKKRFTRRSHLIG | 2.98 |
| FTGERPYECTVCKKRFTRRSHLIG | 1.78 |
| VTGERPYECTVCKKRFTRRSHLIG | 2.39 |
| ITGERPYECTVCKKRFTRRSHLIG | 1.74 |

| Variant | protein stability index |
| --- | --- |
| ETGERPYECTVCKKRFTRRSHLIG | 2.6 |
| PTGERPYECTVCKKRFTRRSHLIG | 2.59 |
| CTGERPYECTVCKKRFTRRSHLIG | 2.48 |
| KTGERPYECTVCKKRFTRRSHLIG | 2.6 |
| WTGERPYECTVCKKRFTRRSHLIG | 2 |
| TTGERPYECTVCKKRFTRRSHLIG | 1.7 |
| MTGERPYECTVCKKRFTRRSHLIG | 2.96 |
| DTGERPYECTVCKKRFTRRSHLIG | 2.19 |
| ATGERPYECTVCKKRFTRRSHLIG | 2.47 |
| GTGERPYECTVCKKRFTRRSHLIG | 1.83 |
| LTGERPYECTVCKKRFTRRSHLIG | 1.79 |
| HTFERPYECTVCKKRFTRRSHLIG | 2.06 |
| HTQERPYECTVCKKRFTRRSHLIG | 3.59 |
| HTLERPYECTVCKKRFTRRSHLIG | 3.83 |
| HTCERPYECTVCKKRFTRRSHLIG | 3.04 |
| HTKERPYECTVCKKRFTRRSHLIG | 2.2 |
| HTEERPYECTVCKKRFTRRSHLIG | 2.26 |
| HTNERPYECTVCKKRFTRRSHLIG | 1.85 |
| HTHERPYECTVCKKRFTRRSHLIG | 3.28 |
| HTMERPYECTVCKKRFTRRSHLIG | 2.38 |
| HTIERPYECTVCKKRFTRRSHLIG | 2.39 |
| HTDERPYECTVCKKRFTRRSHLIG | 2.44 |
| HTAERPYECTVCKKRFTRRSHLIG | 2.63 |
| HTPERPYECTVCKKRFTRRSHLIG | 2.52 |
